This assay addresses mouse PD-L1 (surface receptor on LLC-JSP and 4T1 murine cancer cells) (mouse) (UniProt Q9EP73). Briefly: flow cytometry uptake of dye-siRNA tagged p-iPLK1-NP by 4T1 cells, 1 h exposure (FIG. 11B). A general note: A flow cytometer gives signals particle by particle.

The source of these data is US20260124210A1.

Chain of mouse PD-L1 (surface receptor on LLC-JSP and 4T1 murine cancer cells) (mouse) (Q9EP73 19-290): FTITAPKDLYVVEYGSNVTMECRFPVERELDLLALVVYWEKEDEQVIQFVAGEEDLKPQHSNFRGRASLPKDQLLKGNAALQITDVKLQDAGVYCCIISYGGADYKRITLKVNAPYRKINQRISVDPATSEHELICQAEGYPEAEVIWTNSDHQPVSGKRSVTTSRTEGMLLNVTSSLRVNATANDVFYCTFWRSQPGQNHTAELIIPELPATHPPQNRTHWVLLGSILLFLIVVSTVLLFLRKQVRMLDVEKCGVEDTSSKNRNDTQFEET

For “p-iPLK1-NP (mesoporous silica nanoparticle coated with PEI and PEG, loaded with PLK1 inhibitor volasertib and conjugated with mouse PD-L1 antibody)”, the cellular uptake, PD-L1 high cells vs. PD-L1 low cells (fold) worked out at 4 fold.
